Assay [1] concerns the target T1, Fzd1 cysteine rich domain (CRD), C-terminally biotinylated (human, UniProt Q9UP38 101-230). In words: BLI. The procedure: (§1) Binding kinetics of antibody fragments to a variety of Fzd cysteine rich domain (CRD) protein targets (Fzd1, Fzd2, Fzd3, Fzd4, Fzd5, Fzd6, Fzd7, Fzd8, Fzd9 and/or Fzd10 CRDs) was determined by bio-layer interferometry (BLI) using Octet Red 96 (PALL ForteBio, Fremont, CA) instruments at 30° C., 1000 rpm with streptavidin (SA) biosensors. C-terminal biotinylated Fzd CRD recombinant protein was diluted to 20 nM in the running buffer (PBS, 0.05% Tween-20, 0.5% BSA, pH 7.2) and captured to the SA biosensor until coupling length reached 0.2 nm. Following capture of the Fzd CRD, the SA biosensor with captured biotinylated-Fzd CRD was dipped into wells containing the relevant antibody fragment at […] (0, 1.37, 4.12, 12.4, 37, 111.1, 333.3, 1000 nM) in running buffer, plus a well with only running buffer as a reference channel. […] was determined by global fitting, 1:1 binding model according to manufacturer recommended settings.
(§2) Table 1B provides clone IDs, the sequence identifier number of the antibody heavy chain fragment and/or light chain fragment, if present, for illustrative clones. In certain embodiments, the Fzd binding domain is an Fab or was derived from an Fab, so the heavy chain of Table 1B includes VH and CH1 sequence, but not CH2 or CH3 sequences. In certain embodiments, the Fzd binding domain is a VHH or sdAb® or was derived from a VHH or sdAb, so Table 1B includes the VHH domain. […] The Kd values were determined by BLI as described above. Blank entries denote that the binding to the specific Fzd receptor has not yet been determined. The entry of "n.b." indicates no binding.

Assay [2] concerns the target Fzd2 cysteine rich domain (CRD), C-terminally biotinylated (human, UniProt Q14332 24-155). The assay is described as follows: BLI. On the procedure:
as §1, §2

The target in assay [3] is T1, Fzd1 cysteine rich domain (CRD), …. The assay is described as follows: BLI; **=Kd 100-2000 nM. On the procedure:
as §1, §2

The target is the same in assay [4]. In words: BLI; *=Kd <=100 nM. The procedure: as §1
One antibody fragment, clone 001S-A04, was selected for alanine-scanning mutagenesis of CDRs, and the respective Fzd1 binding affinities of the various mutants were determined by Octet BLI as described in Example 1.

B1: 004S-D08 (Fab, V domains shown)
VH: QVQLVQSGAEVKKPGSSVKVSCKASGYTFTYRYLHWVRQAPGQGLEWMGGIIPIFGTANYAQKFQGRVTITADESTSTAYMELSSLRSEDTAVYYCATHDSSGYYSFDYWGQGTLVTVSS
VL: not shown
As to B1, the binding result in assay [1] and in assay [2] was “no binding (tested: 1000 nM)” throughout.

B2: 002S-F03 (VHH)
VHH: AVQLVESGGGLVQAGGPLRLSCAASGRTSSSYAMGWFRQAPGKEREFVAAISWSGGSTYYADSVKGRFTISRDNAKNTVYLQMDSPIPEDTAVYYCAAGPIARWYRGDMDYWGKGTLVTVSS
In turn, B2 gave a Kd in assay [3] of 100 to 2000 nM.

B3: 002S-E02 (VHH)
VHH: QVQLVESGGGLVQPGGSLRLSCAASGFTFREYAMTWVRQSPGKRLEWVSGISRDGGRTSYSDSLKGRFTISRDNAKNTLYLQMNNLTPEDTAVYYCAPRVLVTAPSGGMDYWGKGTQVTVSS
Regarding B3, the Kd in assay [3] was 100 to 2000 nM.

B4: 001S-A04 mutant VHG10A (Fab, V domains shown)
VH: EVQLVQSGAEVKKPGASVKVSCKASGYTFTSYGISWVRQAPGQGLEWMGWISAYNGNTNYAQKLQGRVTMTTDTSTSTAYMELRSLRSDDTAVYYCASSKEKATYYYAMDVWGQGTTVTVSS
VL: QAVVLQEPSLSVSPGGTVTLTCGLSSGSVSTNYYPSWYQQTPGQAPRTLIYYTNTRSSDVPERFSGSIVGNKAALTITGAQPDDESVYFCLLYLGRGIWVFGGGTKLTVLG
Take B4: the KD in assay [4] is at most 100 nM.

B5: 001S-A04 mutant VHK4A (Fab, V domains shown)
VH: EVQLVQSGAEVKKPGASVKVSCKASGYTFTSYGISWVRQAPGQGLEWMGWISAYNGNTNYAQKLQGRVTMTTDTSTSTAYMELRSLRSDDTAVYYCASSKEAATYYYGMDVWGQGTTVTVSS
VL: QAVVLQEPSLSVSPGGTVTLTCGLSSGSVSTNYYPSWYQQTPGQAPRTLIYYTNTRSSDVPERFSGSIVGNKAALTITGAQPDDESVYFCLLYLGRGIWVFGGGTKLTVLG
The molecule B5 displayed a KD in assay [4] of at most 100 nM.

B6: 001S-A04 mutant VLG5A (Fab, V domains shown)
VH: EVQLVQSGAEVKKPGASVKVSCKASGYTFTSYGISWVRQAPGQGLEWMGWISAYNGNTNYAQKLQGRVTMTTDTSTSTAYMELRSLRSDDTAVYYCASSKEKATYYYGMDVWGQGTTVTVSS
VL: QAVVLQEPSLSVSPGGTVTLTCGLSSGSVSTNYYPSWYQQTPGQAPRTLIYYTNTRSSDVPERFSGSIVGNKAALTITGAQPDDESVYFCLLYLARGIWVFGGGTKLTVLG
Regarding B6, in assay [4], the KD is at most 100 nM.

B7: 001S-A04 mutant VLL1A (Fab, V domains shown)
VH: EVQLVQSGAEVKKPGASVKVSCKASGYTFTSYGISWVRQAPGQGLEWMGWISAYNGNTNYAQKLQGRVTMTTDTSTSTAYMELRSLRSDDTAVYYCASSKEKATYYYGMDVWGQGTTVTVSS
VL: QAVVLQEPSLSVSPGGTVTLTCGLSSGSVSTNYYPSWYQQTPGQAPRTLIYYTNTRSSDVPERFSGSIVGNKAALTITGAQPDDESVYFCALYLGRGIWVFGGGTKLTVLG
On to B7, for which the KD in assay [4] is at most 100 nM.

B8: 001S-A04 mutant VHV13A (Fab, V domains shown)
VH: EVQLVQSGAEVKKPGASVKVSCKASGYTFTSYGISWVRQAPGQGLEWMGWISAYNGNTNYAQKLQGRVTMTTDTSTSTAYMELRSLRSDDTAVYYCASSKEKATYYYGMDAWGQGTTVTVSS
VL: QAVVLQEPSLSVSPGGTVTLTCGLSSGSVSTNYYPSWYQQTPGQAPRTLIYYTNTRSSDVPERFSGSIVGNKAALTITGAQPDDESVYFCLLYLGRGIWVFGGGTKLTVLG
In assay [4], B8 came in with a KD of at most 100 nM.

B9: 001S-A04 mutant VLL2A (Fab, V domains shown)
VH: EVQLVQSGAEVKKPGASVKVSCKASGYTFTSYGISWVRQAPGQGLEWMGWISAYNGNTNYAQKLQGRVTMTTDTSTSTAYMELRSLRSDDTAVYYCASSKEKATYYYGMDVWGQGTTVTVSS
VL: QAVVLQEPSLSVSPGGTVTLTCGLSSGSVSTNYYPSWYQQTPGQAPRTLIYYTNTRSSDVPERFSGSIVGNKAALTITGAQPDDESVYFCLAYLGRGIWVFGGGTKLTVLG
B9: the KD in assay [4] was at most 100 nM.

B10: 001S-A04 mutant VLL4A (Fab, V domains shown)
VH: EVQLVQSGAEVKKPGASVKVSCKASGYTFTSYGISWVRQAPGQGLEWMGWISAYNGNTNYAQKLQGRVTMTTDTSTSTAYMELRSLRSDDTAVYYCASSKEKATYYYGMDVWGQGTTVTVSS
VL: QAVVLQEPSLSVSPGGTVTLTCGLSSGSVSTNYYPSWYQQTPGQAPRTLIYYTNTRSSDVPERFSGSIVGNKAALTITGAQPDDESVYFCLLYAGRGIWVFGGGTKLTVLG
Consider B10, for which the KD in assay [4] was at most 100 nM.

B11: 001S-A04 mutant VLG7A (Fab, V domains shown)
VH: EVQLVQSGAEVKKPGASVKVSCKASGYTFTSYGISWVRQAPGQGLEWMGWISAYNGNTNYAQKLQGRVTMTTDTSTSTAYMELRSLRSDDTAVYYCASSKEKATYYYGMDVWGQGTTVTVSS
VL: QAVVLQEPSLSVSPGGTVTLTCGLSSGSVSTNYYPSWYQQTPGQAPRTLIYYTNTRSSDVPERFSGSIVGNKAALTITGAQPDDESVYFCLLYLGRAIWVFGGGTKLTVLG
B11 returned a KD in assay [4] of at most 100 nM.

B12: 001S-A04 mutant VLY3A (Fab, V domains shown)
VH: EVQLVQSGAEVKKPGASVKVSCKASGYTFTSYGISWVRQAPGQGLEWMGWISAYNGNTNYAQKLQGRVTMTTDTSTSTAYMELRSLRSDDTAVYYCASSKEKATYYYGMDVWGQGTTVTVSS
VL: QAVVLQEPSLSVSPGGTVTLTCGLSSGSVSTNYYPSWYQQTPGQAPRTLIYYTNTRSSDVPERFSGSIVGNKAALTITGAQPDDESVYFCLLALGRGIWVFGGGTKLTVLG
Take B12: in assay [4], the KD was at most 100 nM.

B13: 001S-A04 mutant VHK2A (Fab, V domains shown)
VH: EVQLVQSGAEVKKPGASVKVSCKASGYTFTSYGISWVRQAPGQGLEWMGWISAYNGNTNYAQKLQGRVTMTTDTSTSTAYMELRSLRSDDTAVYYCASSAEKATYYYGMDVWGQGTTVTVSS
VL: QAVVLQEPSLSVSPGGTVTLTCGLSSGSVSTNYYPSWYQQTPGQAPRTLIYYTNTRSSDVPERFSGSIVGNKAALTITGAQPDDESVYFCLLYLGRGIWVFGGGTKLTVLG
As to B13, in assay [4], the KD is at most 100 nM.

B14: 001S-A04 mutant VLV10A (Fab, V domains shown)
VH: EVQLVQSGAEVKKPGASVKVSCKASGYTFTSYGISWVRQAPGQGLEWMGWISAYNGNTNYAQKLQGRVTMTTDTSTSTAYMELRSLRSDDTAVYYCASSKEKATYYYGMDVWGQGTTVTVSS
VL: QAVVLQEPSLSVSPGGTVTLTCGLSSGSVSTNYYPSWYQQTPGQAPRTLIYYTNTRSSDVPERFSGSIVGNKAALTITGAQPDDESVYFCLLYLGRGIWAFGGGTKLTVLG
B14 registered a KD in assay [4] of at most 100 nM.

B15: 001S-A04 mutant VLR6A (Fab, V domains shown)
VH: EVQLVQSGAEVKKPGASVKVSCKASGYTFTSYGISWVRQAPGQGLEWMGWISAYNGNTNYAQKLQGRVTMTTDTSTSTAYMELRSLRSDDTAVYYCASSKEKATYYYGMDVWGQGTTVTVSS
VL: QAVVLQEPSLSVSPGGTVTLTCGLSSGSVSTNYYPSWYQQTPGQAPRTLIYYTNTRSSDVPERFSGSIVGNKAALTITGAQPDDESVYFCLLYLGAGIWVFGGGTKLTVLG
For the molecule B15, in assay [4], the dissociation constant KD is at most 100 nM.

B16: 001S-A04 mutant VLI8A (Fab, V domains shown)
VH: EVQLVQSGAEVKKPGASVKVSCKASGYTFTSYGISWVRQAPGQGLEWMGWISAYNGNTNYAQKLQGRVTMTTDTSTSTAYMELRSLRSDDTAVYYCASSKEKATYYYGMDVWGQGTTVTVSS
VL: QAVVLQEPSLSVSPGGTVTLTCGLSSGSVSTNYYPSWYQQTPGQAPRTLIYYTNTRSSDVPERFSGSIVGNKAALTITGAQPDDESVYFCLLYLGRGAWVFGGGTKLTVLG
B16 displayed a KD in assay [4] of at most 100 nM.

B17: 004S-B08 (Fab, V domains shown)
VH: QVQLVQSGAEVKKPGASVKVSCKASGYTFTNNFMHWVRQAPGQGLEWMGRINPNSGGTNYAQKFQGRVTMTRDTSTSTVYMELSSLRSEDTAVYYCASQNYYGSGSYPGFDYWGQGTLVNVSS
VL: not shown
For the molecule B17, the binding result in assay [1] and in assay [2] was “no binding (tested: 1000 nM)” throughout.

B18: 002S-G02 (VHH)
VHH: AVQLVDSGGGLMQAGGSLRLSCAASGRTFGTWAMGWFRQAPGKEREFVAAISYNGFSTYYSDAVKGRFTISRDNAKNTMYLQMDSLIPEDTAVYYCAAGPIARWYRGDMDYWGKGTQVTVSS
For the molecule B18, in assay [3], the Kd fell in the range of 100 to 2000 nM.

B19: 004S-C09 (Fab, V domains shown)
VH: QVQLVQSGAEVKKPGASVKVSCKASGYTFTNNFMHWVRQAPGQGLEWMGGFDPEDGETIYAQKFQGRVTMTRDTSTSTVYMELSSLRSEDTAVYYCARVGRGYSFDYWGQGTLVTVSS
VL: not shown
Turning to B19, the binding result in assay [1] and in assay [2] was “no binding (tested: 1000 nM)” throughout.

The values above are taken from patent US12006368 (SURROZEN OPERATING, dated 2024).
